The text below walks through data of patent US8753698B2, “Anti-hypertensive functional food products” (Globus Egg Sciences B.V., priority 2004, dated 2014).

The target in assay [1] is Angiotensin-I Converting Enzyme (ACE) (Homo sapiens, UniProt P12821). Description: Determination of ACE inhibitory activity of hydrolysates in a microtiter plate (Hip-His-Leu substrate). The assay is classed as biochemical. The settings on record: no digestion simulation, in %. Here is the method:
ACE inhibitory activity can be measured in vitro using a spectrophotometry based assay. The assay is based on the liberation of hippuric acid from Hip-His-Leu substrate catalyzed by ACE.
Calculation of Ace Inhibition:
[formula] 2.4 Further (Optimized) Hydrolysis of Ovomucin with Alcalase Protocol for the DH Determination by TNBS Method Solutions: • 0.21 M Sodium phosphate buffer pH8.2 • 0.21 M NaH2PO4.H2O (25 ml solution) • 0.21 M Na2HPO4.2H2O (500 ml solution) • mix solutions to pH 8.2 • 0.05% TNBS • Dilute TNBS stock (5% solution) to 0.05% in MQ cover reagent tube with aluminium foil and store in dark place • 1% SDS solution • Leucine standard (stock 3 mM Leucine) • Dissolve Leucine in 1% SDS solution. Dilute the stock solution 20×, 10×, 4× en 2× with 1% SDS for analysis • Blank • Dilute non-hydrolysed sample in 1% SDS to a protein concentration of 0.5 mg/ml • Samples • Dilute hydrolysed protein in 1% SDS to a concentration of 0.5 mg/ml in duplo Analysis: • Pipet 15 μl sample (Leucine standard or sample) in microwell. Measure each dilution in twofold in plate (Costar, non-binding plate) • Add 45 μl 0.21 M sodium phosphate buffer pH 8.2 • Add 45 μl 0.05% TNBS. Cover plate with aluminium foil. Incubate plate for 60 minutes in a 50° C. stove. • After incubation add 90 μl 0.1 N HCl • Measure absorption at 340 nm (microplate reader) Calculation of degree of hydrolysis (DH): • Make calibration line of Leucine standard. This calibration line is used to convert absorption values of samples to NH2-equivalents.

A further assay relates to SHR rats. Description: Acute oral treatment of anaesthetized SHR, blood pressure. The assay is classed as in vivo, rat. The note with it: single oral dose 1000 mg/kg, percentage change from baseline. How it is done:
(§1) This study was performed to establish the effects of acute oral treatment of anaesthetized SHR with lysozym/alcalase on blood pressure and plasma ACE activity.
Rats: SHR rats (382-440 g) were purchased via Harlan, Horst, The Netherlands from Harlan, Oxon, United Kingdom.
(§2) Surgery: At the day of the experiment, rats were anaesthetized and the carotid artery was cannulated for measurement of blood pressure. In addition to that, the jugular vein was cannulated to allow blood sampling for measurement of plasma ACE activity.
(§3) Protocol: At timepoint t=0, rats were administered the study drugs by means of oral gavage using a gastric tube. Blood samples were drawn immediately prior to gavage at t=0, as well as at t=0.5, t=1, t=2, t=3, t=4, t=5 and t=6 hr thereafter. Blood pressure was recorded (mean value every 10 min) throughout the 6 hr study period;
(§4) Study drugs: Rats were randomly administered either lysozym/alcalase or lysozym (both 1000 mg/kg; dissolved in 1 ml drinking water), or water only.

The target in another assay is T1, plasma ACE activity (Rattus norvegicus, UniProt P47820).
T1 construct: effects of acute oral treatment of anaesthetized SHR with lysozym/alcalase on blood pressure and plasma ACE activity; from tissue; host or cells: blood plasma of SHR rats
T1 sequence (P47820 36-1313): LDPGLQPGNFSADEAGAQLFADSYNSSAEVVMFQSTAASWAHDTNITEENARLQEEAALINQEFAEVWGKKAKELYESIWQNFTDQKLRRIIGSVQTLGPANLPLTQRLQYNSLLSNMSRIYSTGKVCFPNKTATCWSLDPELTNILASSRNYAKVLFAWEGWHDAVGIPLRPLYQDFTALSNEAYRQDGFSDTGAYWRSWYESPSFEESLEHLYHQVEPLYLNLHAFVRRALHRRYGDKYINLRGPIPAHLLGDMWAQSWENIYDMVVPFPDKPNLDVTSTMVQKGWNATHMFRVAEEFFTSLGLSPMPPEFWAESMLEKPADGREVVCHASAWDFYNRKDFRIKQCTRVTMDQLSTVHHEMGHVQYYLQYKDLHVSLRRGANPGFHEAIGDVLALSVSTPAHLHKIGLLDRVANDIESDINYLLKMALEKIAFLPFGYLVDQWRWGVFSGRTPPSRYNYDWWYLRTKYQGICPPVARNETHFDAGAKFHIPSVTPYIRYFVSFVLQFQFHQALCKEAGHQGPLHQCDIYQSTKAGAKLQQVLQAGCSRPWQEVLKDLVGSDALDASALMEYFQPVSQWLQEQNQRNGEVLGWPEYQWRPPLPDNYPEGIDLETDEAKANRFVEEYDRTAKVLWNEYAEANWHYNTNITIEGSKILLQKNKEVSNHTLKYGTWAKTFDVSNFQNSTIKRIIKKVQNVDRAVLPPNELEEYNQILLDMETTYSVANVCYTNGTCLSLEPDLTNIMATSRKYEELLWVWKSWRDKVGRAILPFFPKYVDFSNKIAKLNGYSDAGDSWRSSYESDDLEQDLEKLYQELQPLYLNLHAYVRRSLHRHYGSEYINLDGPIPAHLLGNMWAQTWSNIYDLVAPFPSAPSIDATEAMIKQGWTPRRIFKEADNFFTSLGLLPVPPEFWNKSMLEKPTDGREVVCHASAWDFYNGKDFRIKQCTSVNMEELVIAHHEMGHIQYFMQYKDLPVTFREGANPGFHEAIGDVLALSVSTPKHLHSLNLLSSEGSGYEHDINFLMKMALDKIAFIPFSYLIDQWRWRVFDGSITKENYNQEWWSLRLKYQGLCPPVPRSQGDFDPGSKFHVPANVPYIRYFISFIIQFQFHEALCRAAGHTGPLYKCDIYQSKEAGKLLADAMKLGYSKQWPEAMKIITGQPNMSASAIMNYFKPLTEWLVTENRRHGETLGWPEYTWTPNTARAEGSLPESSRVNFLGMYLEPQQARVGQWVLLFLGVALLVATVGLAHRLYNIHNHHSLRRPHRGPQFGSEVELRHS
Briefly: Acute oral treatment of anaesthetized SHR, plasma ACE activity. The assay is classed as in vivo. The settings on record: single oral dose 1000 mg/kg. How it is done: as §1, §2, §3, §4

Sequence of Angiotensin-I Converting Enzyme (ACE) (P12821 30-1306, species assumed): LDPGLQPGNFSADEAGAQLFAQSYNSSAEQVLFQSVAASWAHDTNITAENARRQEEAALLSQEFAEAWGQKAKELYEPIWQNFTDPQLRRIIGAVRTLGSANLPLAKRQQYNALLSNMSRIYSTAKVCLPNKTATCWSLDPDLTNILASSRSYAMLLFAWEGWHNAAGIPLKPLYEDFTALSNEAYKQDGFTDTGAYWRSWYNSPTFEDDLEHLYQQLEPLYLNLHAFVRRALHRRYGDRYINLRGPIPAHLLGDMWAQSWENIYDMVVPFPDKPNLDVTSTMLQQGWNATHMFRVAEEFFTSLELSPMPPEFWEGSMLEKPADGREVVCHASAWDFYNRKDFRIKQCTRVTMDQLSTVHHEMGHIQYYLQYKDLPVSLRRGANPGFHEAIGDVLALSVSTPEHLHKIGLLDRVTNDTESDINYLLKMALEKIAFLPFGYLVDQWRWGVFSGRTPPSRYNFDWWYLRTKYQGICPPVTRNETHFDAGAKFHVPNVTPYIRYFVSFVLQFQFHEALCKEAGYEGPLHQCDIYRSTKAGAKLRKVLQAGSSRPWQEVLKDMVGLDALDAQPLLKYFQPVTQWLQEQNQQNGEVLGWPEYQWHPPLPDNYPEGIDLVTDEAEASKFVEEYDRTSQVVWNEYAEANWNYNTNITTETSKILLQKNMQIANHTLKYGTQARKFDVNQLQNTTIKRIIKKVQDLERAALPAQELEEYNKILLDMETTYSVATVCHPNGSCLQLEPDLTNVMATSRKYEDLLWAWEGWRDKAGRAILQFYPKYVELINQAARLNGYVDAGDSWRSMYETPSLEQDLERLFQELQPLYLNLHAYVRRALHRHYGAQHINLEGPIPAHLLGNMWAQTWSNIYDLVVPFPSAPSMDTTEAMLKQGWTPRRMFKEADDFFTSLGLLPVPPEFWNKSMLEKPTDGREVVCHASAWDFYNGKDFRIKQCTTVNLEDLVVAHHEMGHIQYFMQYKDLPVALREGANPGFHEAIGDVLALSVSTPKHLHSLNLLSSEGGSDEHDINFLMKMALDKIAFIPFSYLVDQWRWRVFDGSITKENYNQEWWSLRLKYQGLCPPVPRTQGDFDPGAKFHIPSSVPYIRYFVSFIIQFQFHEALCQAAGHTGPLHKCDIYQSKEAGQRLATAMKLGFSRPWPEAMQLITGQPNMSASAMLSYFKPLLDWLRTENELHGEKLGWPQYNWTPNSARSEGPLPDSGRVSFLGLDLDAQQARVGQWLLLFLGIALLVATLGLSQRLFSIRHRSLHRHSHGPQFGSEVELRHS

“Lys UM: lysozyme, not pre-hydrolysed, nor in vitro digested; control in SHR studies”: the ACE inhibition in assay [1] (conc. 0.019 mg/ml) is 0.1; in assay [1] (conc. 0.056 mg/ml), 1.3; in assay [1] (conc. 0.167 mg/ml) it was −4.7; in assay [1] (conc. 0.500 mg/ml), 2.6. The “maximal reduction in SBP” value in the assay on SHR rats was “approx. 15%”. For the same substance, in the assay with plasma ACE activity, the “maximal decrease (inhibition) of plasma ACE activity from baseline” value is “approx. 10%”.

Regarding “OM-UM: ovomucin, not pre-hydrolysed, nor in vitro digested”, the ACE inhibition in assay [1] (conc. 0.019 mg/ml) was −0.4; in assay [1] (conc. 0.056 mg/ml), 5.2; in assay [1] (conc. 0.167 mg/ml), 2.2; in assay [1] (conc. 0.500 mg/ml), 2.1.
